Results as given in paper PMC4523182, “Biochemical Characterization of a Mycobacteriophage Derived DnaB Ortholog Reveals New Insight into the Evolutionary Origin of DnaB Helicases”.
Blank lines part the entries; values can stand above or below the molecule they belong to.

What was measured:
[1] = target: Wildcat Gp80 (mycobacteriophage Wildcat); test: SEC; analytical Superose 6 10/300 GL, FPLC, 0.4 ml/min, 40 mM Tris-HCl pH 7.5, 50 mM KCl, 2 mM DTT; Mw from a standard curve (thyroglobulin, beta-amylase, BSA, ovalbumin, cytochrome C)
[2] = target: Wildcat Gp80 (mycobacteriophage Wildcat); test: dynamic light scattering; higher protein concentrations (1 uM unless otherwise stated), 50 mM Tris-HCl pH 8.0, 50 mM KCl, 2 mM DTT, 1 mM MgCl2, 25°C; weight average hydrodynamic radius; no cofactor; oligomer also kept with 4 mM AMP-PNP and with 4 mM ATP plus 24 uM 41 mer ssDNA
[3] = target: T1, WCGp80 (Wildcat Gp80, DnaB-type helicase) (Mycobacteriophage Wildcat, UniProt Q19XY0 1-441); test: fluorescence polarization; one-site non-cooperative fit; Binding buffer, pH and temperature not given in the material; Trp quenching ex 280/em 340 nm (helicase assay buffer E: 50 mM Tris-HCl pH 8.0, 50 mM KCl, 2 mM DTT, 0.25 mg/ml BSA, 4 mM MgCl2, 4 mM ATP, 4% sucrose, 37 C); conditions: protein: recombinant; tags: N-terminal His6 (pQE30); chain copies: 6; label: 5' 6-FAM on oligo 2; fork 20 bp stem; 40 nt 5' tail on oligo1 and 40 nt 3' tail on oligo2
T1 sequence: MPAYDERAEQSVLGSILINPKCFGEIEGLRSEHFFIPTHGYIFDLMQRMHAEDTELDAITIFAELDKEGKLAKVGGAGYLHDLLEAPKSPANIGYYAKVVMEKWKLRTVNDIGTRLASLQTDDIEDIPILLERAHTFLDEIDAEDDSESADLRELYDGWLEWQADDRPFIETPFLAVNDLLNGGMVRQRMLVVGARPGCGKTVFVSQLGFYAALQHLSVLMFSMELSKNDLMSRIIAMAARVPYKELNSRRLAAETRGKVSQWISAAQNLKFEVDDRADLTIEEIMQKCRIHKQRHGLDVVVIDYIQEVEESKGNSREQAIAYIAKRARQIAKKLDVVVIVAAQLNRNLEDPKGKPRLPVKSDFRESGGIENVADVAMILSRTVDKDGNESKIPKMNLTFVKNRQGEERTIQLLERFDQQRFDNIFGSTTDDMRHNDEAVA

[4] = target: T1, WCGp80 (Wildcat Gp80, DnaB-type …); test: tryptophan fluorescence quenching; 40 nM protein; S6 Fig legend gives 152 nM; Binding buffer, pH and temperature not given in the material; Trp quenching ex 280/em 340 nm (helicase assay buffer E: 50 mM Tris-HCl pH 8.0, 50 mM KCl, 2 mM DTT, 0.25 mg/ml BSA, 4 mM MgCl2, 4 mM ATP, 4% sucrose, 37 C); conditions: protein: recombinant; tags: N-terminal His6 (pQE30); chain copies: 6; single strand
[5] = target: T1, WCGp80 (Wildcat Gp80, DnaB-type …); test: tryptophan fluorescence quenching; 40 nM protein; S6 Fig legend gives 56.44 nM; Binding buffer, pH and temperature not given in the material; Trp quenching ex 280/em 340 nm (helicase assay buffer E: 50 mM Tris-HCl pH 8.0, 50 mM KCl, 2 mM DTT, 0.25 mg/ml BSA, 4 mM MgCl2, 4 mM ATP, 4% sucrose, 37 C); conditions: protein: recombinant; tags: N-terminal His6 (pQE30); chain copies: 6; single strand

- stoichiometry N [1]: 6
- stoichiometry N [2]: 6
Molecule: Wildcat Gp80 (enzyme)

B1: fork substrate (oligo1/oligo2) (mixed)
DNA 1: GCCCTGATCACGGTACTCGGTTTTTTTTTTTTTTTTTTTTGGCTCCTCTAGACTCGACCG
DNA 2: CGGTCGAGTCTAGAGGAGCCTTTTTTTTTTTTTTTTTTTTTTTTTTTTTTTTTTTTTTTT
- Kd [3]: 9.5 nM

B2: 60-mer (oligo2) (ssDNA)
DNA: CGGTCGAGTCTAGAGGAGCCTTTTTTTTTTTTTTTTTTTTTTTTTTTTTTTTTTTTTTTT
- Kd [4]: 164 nM

B3: 41-mer (ssDNA)
DNA: TCGAGCTCGGTACCCGGGGATCCTCTAGAGTCGACCTGCAGG
- Kd [5]: 58 nM
